The target of the test is T1, hFc-hFasL (fusion protein of human Fc fragment and human FasL extracellular region) (human, UniProt P48023 134-281).
T1 sequence: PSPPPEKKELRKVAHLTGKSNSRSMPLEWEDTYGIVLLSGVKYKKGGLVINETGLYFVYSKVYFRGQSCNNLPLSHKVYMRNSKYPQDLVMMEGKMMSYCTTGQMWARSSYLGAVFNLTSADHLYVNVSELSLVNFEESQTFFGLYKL
The experiment in a line: cell-based or functional assay.

Positions count from the first letter of the chain named.

B1: humFL-M54-1 (antibody, human IgG4, V domains shown)
VH: QVQLVQSGAEVKKPGSSVKVSCKASGYTFTRFDISWVRQAPGQGLEWIGWIFPGDGSSQYNENFKGRATLTTDKSTSTAYMELSSLRSEDTAVYFCARSLISTAMFDHWGQGTLVTVSS
VL: EIVMTQSPATLSVSPGERATLSCRASKSVSTSDFSYIHWYQQKPGQPPRLLIFLASHLESGIPARFSGSGSGTEFTLTISSLQSEDFAVYYCQHSRELPRTFGQGTKVEIK
Take B1: the “HepG2 IC50(nM), FasL antigen-induced cell apoptosis” value (“HepG2 IC50(nM)” for short) came to 0.028 nM and the “Jurkat IC50(nM), FasL antigen-induced cell apoptosis” value (“Jurkat IC50(nM)” for short) is 0.035 nM.

B2: humFL-M54-6 (antibody, human IgG4, V domains shown)
VH: B1 VH
VL: B1 VL with F53Y
As to B2, the “HepG2 IC50(nM)” value came out at 0.031 nM.

B3: humFL-M54-8 (antibody, human IgG4, V domains shown)
VH: B1 VH with I48M, L70I
VL: B1 VL with F53Y
On to B3, for which the “HepG2 IC50(nM)” value came to 0.025 nM and the “Jurkat IC50(nM)” value worked out at 0.044 nM.

B4: humFL-M54-3 (antibody, human IgG4, V domains shown)
VH: B1 VH with I48M, L70I
VL: B1 VL
Consider B4, for which the “HepG2 IC50(nM)” value was determined as 0.035 nM.

B5: humFL-M54-4 (antibody, human IgG4, V domains shown)
VH: B1 VH with I48M, A68V
VL: B1 VL
As for B5, the “HepG2 IC50(nM)” value came out at 0.03 nM and the “Jurkat IC50(nM)” value was 0.053 nM.

B6: humFL-M54-7 (antibody, human IgG4, V domains shown)
VH: B1 VH with I48M
VL: B1 VL with F53Y
As to B6, the “HepG2 IC50(nM)” value was determined as 0.028 nM and the “Jurkat IC50(nM)” value is 0.059 nM.

B7: humFL-M54-9 (antibody, human IgG4, V domains shown)
VH: B1 VH with I48M, A68V
VL: B1 VL with F53Y
Consider B7, for which the “HepG2 IC50(nM)” value was 0.026 nM and the “Jurkat IC50(nM)” value was found to be 0.035 nM.

B8: humFL-M54-12 (antibody, human IgG4, V domains shown)
VH: B1 VH with I48M
VL: B1 VL with P47A, F53Y
With B8, the “HepG2 IC50(nM)” value amounted to 0.032 nM and the “Jurkat IC50(nM)” value is 0.015 nM.

B9: humFL-M54-14 (antibody, human IgG4, V domains shown)
VH: B1 VH with I48M, A68V
VL: B1 VL with P47A, F53Y
Turning to B9, the “HepG2 IC50(nM)” value stood at 0.023 nM and the “Jurkat IC50(nM)” value is 0.038 nM.

B10: humFL-M54-5 (antibody, human IgG4, V domains shown)
VH: B1 VH with I48M, A68V, L70I, T72A
VL: B1 VL
Consider B10, for which the “HepG2 IC50(nM)” value worked out at 0.027 nM and the “Jurkat IC50(nM)” value worked out at 0.052 nM.

B11: humFL-M54-10 (antibody, human IgG4, V domains shown)
VH: B1 VH with I48M, A68V, L70I, T72A
VL: B1 VL with F53Y
Consider B11, for which the “HepG2 IC50(nM)” value was 0.034 nM and the “Jurkat IC50(nM)” value is 0.017 nM.

B12: humFL-M54-2 (antibody, human IgG4, V domains shown)
VH: B1 VH with I48M
VL: B1 VL
As to B12, the “HepG2 IC50(nM)” value is 0.031 nM and the “Jurkat IC50(nM)” value is 0.028 nM.

B13: humFL-M54-15 (antibody, human IgG4, V domains shown)
VH: B1 VH with I48M, A68V, L70I, T72A
VL: B1 VL with P47A, F53Y
Consider B13, for which the “HepG2 IC50(nM)” value came to 0.03 nM and the “Jurkat IC50(nM)” value turned out to be 0.015 nM.

The record behind these values is patent publication US20250101120A1 (BEIJING SOLOBIO GENETECHNOLOGY, published 2025).
